± gives the uncertainty stated by the source.
Assay: protein stability index of a GFP-peptide fusion (yeast GPS) (PSI 1-4); higher = more stable; sorted into four equal gates, so the index is relative within each strain
Procedure, shortened: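 The protein stability index combines read frequencies across sorting gates, each weighted by its gate number and then summed. To obtain those frequencies, a pooled yeast library of GFP fusions to tiled 17-residue yeast protein peptides, on a plasmid also expressing Cherry, was grown to mid-log phase in leucine-free medium. The cells were sorted into four equal gates by GFP/Cherry ratio before plasmid amplification by PCR and Illumina sequencing.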

| Sequence | protein stability index (doa10∆) | protein stability index (pdr5∆) | protein stability index (san1∆) | protein stability index (ubr1∆) |
| --- | --- | --- | --- | --- |
| TDKIGRSVPAPGKGILT [FAS2] | 2.95 ± 0.17 | 3.16 ± 0.13 | 2.79 ± 0.2 | 3.21 ± 0.12 |
| NVFGQDNEDSDNLFGET [SWI3] | 3.37 ± 0.13 | 3.7 ± 0.13 | 3.23 ± 0.12 | 3.5 ± 0.094 |
| QYIRTLVSEARTLWPEF [SSN8] | 2.61 ± 0.052 | 2.67 ± 0.052 | 2.39 ± 0.06 | 2.42 ± 0.046 |
| SSNLYETIIEADKSLPS [YJR042W/NUP85] | 2.76 ± 0.054 | 2.97 ± 0.052 | 2.94 ± 0.039 | 2.96 ± 0.061 |
| AGKWFDPVLDWRKSDRE [SIR4] | 3.17 ± 0.088 | 3.44 ± 0.087 | 2.71 ± 0.14 | 3.18 ± 0.066 |
| PNLGPQLWLNSSGDFDD [GRR1] | 2.97 ± 0.16 | 3.16 ± 0.22 |  |  |
| VHELSKRVHTLLTLIVR [ISW2] | 1.34 ± 0.091 | 1.44 ± 0.064 | 1.96 ± 0.16 | 1.37 ± 0.041 |
| KPTDATGNTTSKSAFSF [YOR098C/NUP1] | 2.04 ± 0.12 | 2.57 ± 0.088 | 2.1 ± 0.12 | 2.46 ± 0.11 |
| LALEIIVRPAKGVATTR [RRP46] | 2.09 ± 0.058 | 2.18 ± 0.065 | 1.86 ± 0.078 | 2.25 ± 0.051 |
| STVKKKDIVNISIPKTC [REC8] | 2.71 ± 0.088 | 2.41 ± 0.063 | 2.53 ± 0.084 | 2.62 ± 0.054 |
| LVYDVKGRFAVHRITDE [RPS4A] | 3.25 ± 0.078 | 3.08 ± 0.11 | 3.46 ± 0.07 | 3.29 ± 0.068 |
| LQNLQRIIRKKIFIAVV [RRI2] | 1.21 ± 0.078 | 1.19 ± 0.073 |  | 1.16 ± 0.091 |
| ILHVRAQYCYKNGLYQE [SRP72] | 2.86 ± 0.073 | 2.94 ± 0.095 | 3.1 ± 0.068 | 3.25 ± 0.057 |
| LLSKIMLNLIDDVKNIL [RPN6] | 2.2 ± 0.13 | 1.4 ± 0.1 | 1.25 ± 0.13 | 1.22 ± 0.08 |
| TLEQKVNLENPIPIAVL [FAS1] | 1.35 ± 0.048 | 1.4 ± 0.041 | 1.57 ± 0.095 | 1.39 ± 0.028 |
| PLAKIYLEENKSDSQYR [MED1] | 3.15 ± 0.086 | 3.18 ± 0.065 | 3.15 ± 0.059 | 3.16 ± 0.06 |
| ISPESVFGTLGELIKVN [SMC3] | 2.15 ± 0.06 | 2.25 ± 0.078 | 1.84 ± 0.096 | 1.86 ± 0.036 |
| YVLRNVLRIPEEYLDAN [MTW1] | 2.67 ± 0.12 | 2.33 ± 0.15 | 3 ± 0.061 | 2.82 ± 0.088 |
| PIGEAGDFGGWFCPCHG [RIP1] | 2 ± 0.1 | 1.97 ± 0.05 | 2.87 ± 0.08 | 3.18 ± 0.075 |
| QELLNAETLCFTVNVLY [RPN3] | 3.11 ± 0.075 | 2.75 ± 0.087 | 2.94 ± 0.065 | 2.87 ± 0.062 |
| ASKSGKLTQKLVTAGVA [CYT1] | 1.85 ± 0.068 | 1.83 ± 0.057 | 2.45 ± 0.062 | 1.95 ± 0.048 |
| SPIVNVLEDVYRCFAQL [RRI2] | 2.53 ± 0.18 | 3.19 ± 0.17 | 2.9 ± 0.14 | 3.09 ± 0.083 |
| QEELKKRQELEEASQQQ [MED2] | 2.96 ± 0.058 | 3.2 ± 0.076 | 2.47 ± 0.071 | 3.29 ± 0.046 |
| ELSVTGSAINHHRIFDS [YMR129W/POM152] | 3.02 ± 0.12 | 3.24 ± 0.1 | 2.91 ± 0.12 | 2.93 ± 0.052 |
| KKRNPSKQNGSKFHFSW [PRP28] | 2.78 ± 0.054 | 2.62 ± 0.05 | 2.52 ± 0.052 | 2.49 ± 0.038 |
| SNSDNCPEEFAESMCQE [SNF5] | 3.25 ± 0.065 | 3.33 ± 0.069 | 3.27 ± 0.041 | 3.01 ± 0.068 |
| AFETHYRRLFAKRLIHG [CDC53] | 2.46 ± 0.076 | 2.54 ± 0.071 | 2.8 ± 0.09 | 2.89 ± 0.071 |
| KNMGLVPMKEENLEESF [SSN2] | 3.07 ± 0.2 | 3.38 ± 0.13 | 2.95 ± 0.17 |  |

| Sequence | protein stability index (doa10∆) | protein stability index (pdr5∆) | protein stability index (san1∆) | protein stability index (ubr1∆) |
| --- | --- | --- | --- | --- |
| KNLERLRGEYNDLQSET [SMC4] | 3.33 ± 0.2 | 3.4 ± 0.083 | 3.25 ± 0.067 | 2.9 ± 0.06 |
| RQSKSSGKSNTSNDASN [ITC1] | 3.09 ± 0.095 | 3.28 ± 0.08 | 3.34 ± 0.065 | 3.22 ± 0.076 |
| VVESVGAEVDEARINEL [RPP2B] | 3.23 ± 0.11 | 3.21 ± 0.091 | 3.35 ± 0.095 | 3.47 ± 0.15 |
| KNQLRDWIRFVSTKTNE [RPL22A] | 2.3 ± 0.046 | 2.22 ± 0.047 | 2.17 ± 0.068 | 2.61 ± 0.04 |
| GKPTVNKKPKNKKKGRK [SRP72] | 3.42 ± 0.084 | 3.29 ± 0.1 | 2.93 ± 0.1 | 3.24 ± 0.092 |
| QQQQQQQQGQIPQSQQV [SNF5] | 2.231 ± 0.016 | 2.63 ± 0.018 | 2.257 ± 0.02 | 2.511 ± 0.02 |
| IVPDLIINPHAIPSRMT [RPB2] | 1.81 ± 0.048 | 2 ± 0.042 | 1.75 ± 0.068 | 2.16 ± 0.047 |
| QADLQAMDRAHRIGQKK [ISW2] |  |  | 3.14 ± 0.23 |  |
| NVLCVNIKSNDFSIRKT [ECM29] | 2.52 ± 0.068 | 2.66 ± 0.099 | 2.58 ± 0.1 | 2.6 ± 0.071 |
| EKPLTPLKYTKLIAAAE [SNF6] | 1.25 ± 0.23 | 1.27 ± 0.12 | 1.22 ± 0.21 | 1.15 ± 0.2 |
| RFDAQTGSDREVQRILI [RPT3] | 3.09 ± 0.12 | 3.08 ± 0.14 | 3.43 ± 0.1 | 3.4 ± 0.16 |
| TNVNVKIKDVQQQIESN [SMC3] | 3.19 ± 0.088 | 3.17 ± 0.081 | 3.18 ± 0.074 | 2.79 ± 0.1 |
| DHKYVCTFSMEPYHFIS [SRB8] | 2.37 ± 0.061 | 2.03 ± 0.047 | 1.83 ± 0.059 | 2.09 ± 0.043 |
| QQVPPLPDELTLSYDDI [DLS1] | 2.56 ± 0.045 | 2.83 ± 0.055 | 2.69 ± 0.05 | 2.74 ± 0.039 |
| KGVTEKDAVDYSKIPNI [RRP6] | 3.24 ± 0.12 | 3.18 ± 0.092 | 3.25 ± 0.08 | 3.3 ± 0.069 |
| GLFPFESYKPSVQLPDM [SWI3] | 3.05 ± 0.09 | 2.88 ± 0.081 | 2.96 ± 0.067 | 2.81 ± 0.07 |
| EKTMVKKNLGRLTRLWI [PRP8] | 2.28 ± 0.13 | 3.07 ± 0.12 | 1.45 ± 0.14 | 1.67 ± 0.2 |
| PTSPNYSPTSPSYSPTS [RPO21] | 2.78 ± 0.034 | 2.9 ± 0.031 | 3.064 ± 0.026 | 2.969 ± 0.026 |
| CERRSTLKLQDTRITPS [PRE6] | 2.53 ± 0.061 | 2.81 ± 0.092 | 3.09 ± 0.099 | 2.82 ± 0.059 |
| ATTSVMMVNNQTMQLIK [SRB6] | 3.09 ± 0.16 | 2.1 ± 0.17 | 2.12 ± 0.1 |  |
| EIITSLSMRFQRETSGM [SRB8] |  | 2.28 ± 0.18 |  | 2.47 ± 0.17 |
| EKWISSKNSKLSIICVG [SIR3] | 1.82 ± 0.091 | 1.52 ± 0.075 | 1.37 ± 0.17 | 1.23 ± 0.073 |
| KNGLGLNFSTTAPANTT [MED2] | 2.16 ± 0.07 | 2.38 ± 0.047 | 2.15 ± 0.072 | 2.06 ± 0.042 |
| RVIDDNNRRRSRKRGGE [SIR3] | 3.57 ± 0.086 | 3.36 ± 0.11 | 3.21 ± 0.11 | 3.46 ± 0.084 |
| LDDWISIGYETELKKIT [IRR1] | 2.09 ± 0.07 | 2.75 ± 0.078 | 2.33 ± 0.14 | 2.58 ± 0.053 |
| KLLKEKVKLFHGILDDL [MED2] | 3.1 ± 0.12 | 2.93 ± 0.13 | 3.09 ± 0.06 | 2.97 ± 0.14 |
| RIANIEQNHLDNNYNTA [YDL088C/ASM4] | 3.11 ± 0.065 | 3.18 ± 0.071 | 3.08 ± 0.044 | 3.03 ± 0.064 |
